The text below walks through data of article PMC3064236.

This test has as its target Mcm2-7 heterohexamer (X. laevis (endogenous in egg extract)) (UniProt P55861). The test can be described thus: SEC + other: glycerol gradient sedimentation.

On to “Mcm2-7 heterohexamer, P55861 1-886; P49739 1-807; P30664 1-863; P55862 1-735; Q5FWY4 1-821; Q91876 1-720”, for which the stoichiometry N (hexamers in the complex) was 2.
